Measurements: FireProtDB
Where “and” joins values, the source holds several entries; their conditions need not be identical. Equal values may be shown once.

Conditions: whole UniProt chain shown
[1] = Nitratidesulfovibrio vulgaris (strain DSM 19637 / Miyazaki F), pH 7, 20 °C, GdnHCl, CD, phosphate 0.1 M, reversible: yes
[2] = Notophthalmus viridescens, pH 7.2, 25 °C, GdnHCl, CD, Phosphate 100 mM
[3] = Oryctolagus cuniculus, pH 7.4, Thermal, DSC, sodium phosphate 50 mM, reversible: yes
[4] = Phaseolus vulgaris, pH 7, 25 °C, GdnHCl, CD, Potassium phosphate 50 mM, Na2SO4 0.5 M, reversible: yes
[5] = Phaseolus vulgaris, pH 7, 25 °C, GdnHCl, Fluorescence, Potassium phosphate 50 mM, Na2SO4 0.5 M, reversible: yes
[6] = Pseudomonas aeruginosa (strain ATCC 15692 / DSM 22644 / CIP 104116 / JCM 14847 / LMG 12228 / 1C / PRS 101 / PAO1), pH 7, 20 °C, GdnHCl, CD, phosphate 5 mM, reversible: yes
[7] = Pseudomonas aeruginosa (strain ATCC 15692 / DSM 22644 / CIP 104116 / JCM 14847 / LMG 12228 / 1C / PRS 101 / PAO1), pH 8, Thermal, DSC, Tris-HCl 10 mM, NaCl 200 mM, reversible: yes
[8] = Pseudomonas aeruginosa (strain ATCC 15692 / DSM 22644 / CIP 104116 / JCM 14847 / LMG 12228 / 1C / PRS 101 / PAO1), pH 7, Thermal, CD, KH2PO4-NaOH 10 mM, reversible: yes

B1: Cytochrome c-553 wild type, P00120 (protein)
chain: MKRILVVMSICAALAFGVSAAMAADGAALYKSCVGCHGADGSKQAMGVGHAVKGQKADELFKKLKGYADGSYGGEKKAVMTNLVKRYSDEEMKAMADYMSKL
denaturant m value [1]: 2.49 kcal/mol/M and 2.75 kcal/mol/M
denaturant midpoint (higher = more stable) [1]: 3.65 M and 3.91 M
unfolding free energy [1]: 38 kJ/mol and 45 kJ/mol

B2: Fibroblast growth factor 1 wild type, Q7SIF8 (protein)
chain: QKPKLLYCSNGGYFLRIFPDGKVDGTRDRSDPYIQLQFYAESVGEVYIKSLETGQYLAMDSDGQLYASQSPSEECLFLERLEENNYNTYKSKVHADKDWFVGIKKNGKTKPGSRTHFGQKAILFLPLPVSSD
denaturant m value [2]: 3.8 kcal/mol/M
denaturant midpoint (higher = more stable) [2]: 1.6 M
unfolding free energy [2]: 25.5 kJ/mol

B3: Cytochrome b5 wild type, P00169 (protein)
chain: MAAQSDKDVKYYTLEEIKKHNHSKSTWLILHHKVYDLTKFLEEHPGGEEVLREQAGGDATENFEDVGHSTDARELSKTFIIGELHPDDRSKLSKPMETLITTVDSNSSWWTNWVIPAISALIVALMYRLYMADD
unfolding free energy (Oryctolagus cuniculus, pH 7.4, 25 °C, Thermal, DSC, sodium phosphate 50 mM, reversible: yes): 7.11 kJ/mol
Tm [3]: 48.5 °C
heat capacity change of unfolding [3]: 1 kcal/mol/K
unfolding enthalpy (calorimetric) [3]: 149 kJ/mol

B4: wild type, P95467 (protein)
chain: MKKALIASTALLLTAGVAAADVKISGYGRTGVIYYENDSDVNESRVQSRLRMNIDASSSTDSGVDFGARFRLQWDQGEEGEAQTNAGKLWVSAQGFTVEVGNVDTAFASNGLIYETGLGSYDRSVGFSAVTGAFFAYDSNGYGIDEVDRVGIRALYTLGDLTLQASYVDPDQSGTVIGVEEEFGFSVDYTWNERLELSAAAAFNGAGIDGNDIYFLGARYAVMDNARIGLNFVDAGDEEDGYDGKTIALYGDYTLADGRTNLEAYIANNDRDSNETDNAFGIGVNYDLGGARLGASLQRDYAENVTADFGVRFEF
Tm (Paracoccus denitrificans, pH 1.5, Thermal, CD, Unknown, reversible: No): 78.5 °C
Tm (Paracoccus denitrificans, pH 4, Thermal, CD, Unknown, reversible: No): 82.6 °C
Tm (Paracoccus denitrificans, pH 8, Thermal, Absorbance, Tris-HCl 50 mM, NaCl 100 mM, reversible: no): 86.2 °C
Tm (Paracoccus denitrificans, pH 8, Thermal, CD, Unknown, reversible: No): 86.2 °C
Tm (Paracoccus denitrificans, pH 10, Thermal, CD, Unknown, reversible: No): 86.2 °C

B5: Plastocyanin wild type, P00287 (protein)
chain: LEVLLGSGDGSLVFVPSEFSVPSGEKIVFKNNAGFPHNVVFDEDEIPAGVDAVKISMPEEELLNAPGETYVVTLDTKGTYSFYCSPHQGAGMVGKVTVN
denaturant m value [4]: 2.7 kcal/mol/M
denaturant midpoint (higher = more stable) [4]: 2.1 M
unfolding free energy [4]: 24.3 kJ/mol
denaturant m value [5]: 2.5 kcal/mol/M
denaturant midpoint (higher = more stable) [5]: 2.1 M
unfolding free energy [5]: 22.2 kJ/mol

B6: Serine proteinase inhibitor IA-1 wild type, Q7M4T6 (protein)
chain: SAGKFIVIFKNDVSEDKIRETKDEVIAEGGTITNEYNMPGMKGFAGELTPQSLTKFQGLQGDLIDSIEEDGIVTTQ
Tm (Pleurotus ostreatus, pH 7, Thermal, CD, sodium phosphate 50 mM): 59 °C

B7: Azurin wild type, P00282 (protein)
chain: MLRKLAAVSLLSLLSAPLLAAECSVDIQGNDQMQFNTNAITVDKSCKQFTVNLSHPGNLPKNVMGHNWVLSTAADMQGVVTDGMASGLDKDYLKPDDSRVIAHTKLIGSGEKDSVTFDVSKLKEGEQYMFFCTFPGHSALMKGTLTLK
denaturant m value [6]: 4.18 kcal/mol/M
denaturant midpoint (higher = more stable) [6]: 1.7 M
unfolding free energy [6]: 29.1 kJ/mol
unfolding free energy (Pseudomonas aeruginosa (strain ATCC 15692 / DSM 22644 / CIP 104116 / JCM 14847 / LMG 12228 / 1C / PRS 101 / PAO1), pH 7.5, 40 °C, GdnHCl, Fluorescence, Tris Cl 2 mM, reversible: Yes): 36 kJ/mol
Tm [7]: 62 °C
unfolding enthalpy (calorimetric) [7]: 690 kJ/mol

B8: Cytochrome c-551 wild type, P00099 (protein)
chain: MKPYALLSLLATGTLLAQGAWAEDPEVLFKNKGCVACHAIDTKMVGPAYKDVAAKFAGQAGAEAELAQRIKNGSQGVWGPIPMPPNAVSDDEAQTLAKWVLSQK
Tm [8]: 56 °C
unfolding enthalpy (van 't Hoff) [8]: 165 kJ/mol

B9: Harpin HrpZ wild type, P35674 (protein)
chain: MQSLSLNSSSLQTPAMALVLVRPEAETTGSTSSKALQEVVVKLAEELMRNGQLDDSSPLGKLLAKSMAADGKAGGGIEDVIAALDKLIHEKLGDNFGASADSASGTGQQDLMTQVLNGLAKSMLDDLLTKQDGGTSFSEDDMPMLNKIAQFMDDNPAQFPKPDSGSWVNELKEDNFLDGDETAAFRSALDIIGQQLGNQQSDAGSLAGTGGGLGTPSSFSNNSSVMGDPLIDANTGPGDSGNTRGEAGQLIGELIDRGLQSVLAGGGLGTPVNTPQTGTSANGGQSAQDLDQLLGGLLLKGLEATLKDAGQTGTDVQSSAAQIATLLVSTLLQGTRNQAAA
unfolding enthalpy (calorimetric) (Pseudomonas syringae pv. syringae, pH 7.5, Thermal, CD, Sodium phosphate 5mM): 141 kJ/mol and 244 kJ/mol

B10: Lipase B wild type, P41365 (protein)
chain: MKLLSLTGVAGVLATCVAATPLVKRLPSGSDPAFSQPKSVLDAGLTCQGASPSSVSKPILLVPGTGTTGPQSFDSNWIPLSTQLGYTPCWISPPPFMLNDTQVNTEYMVNAITALYAGSGNNKLPVLTWSQGGLVAQWGLTFFPSIRSKVDRLMAFAPDYKGTVLAGPLDALAVSAPSVWQQTTGSALTTALRNAGGLTQIVPTTNLYSATDEIVQPQVSNSPLDSSYLFNGKNVQAQAVCGPLFVIDHAGSLTSQFSYVVGRSALRSTTGQARSADYGITDCNPLPANDLTPEQKVAAAALLAPAAAAIVAGPKQNCEPDLMPYARPFAVGKRTCSGIVTP
Tm (Pseudozyma antarctica, pH 7, Thermal, CD, Tris-HCl 50 mM, reversible: No): 57.7 °C
Tm (Pseudozyma antarctica, pH 7, Thermal, Differential Scanning Fluorimetry, HEPES 10mM): 54.8 °C
